Data taken from patent US20250376536A1 (Bristol-Myers Squibb, published 2025).

How the values were obtained:
[1] = target: T1, human FAP on cells (human, UniProt Q12884 1-760); assay: binding to human FAP-positive HEK cells
T1 construct: also called FAP-positive HEK cells (human); human FAP-expressing HEK cells
T1 sequence: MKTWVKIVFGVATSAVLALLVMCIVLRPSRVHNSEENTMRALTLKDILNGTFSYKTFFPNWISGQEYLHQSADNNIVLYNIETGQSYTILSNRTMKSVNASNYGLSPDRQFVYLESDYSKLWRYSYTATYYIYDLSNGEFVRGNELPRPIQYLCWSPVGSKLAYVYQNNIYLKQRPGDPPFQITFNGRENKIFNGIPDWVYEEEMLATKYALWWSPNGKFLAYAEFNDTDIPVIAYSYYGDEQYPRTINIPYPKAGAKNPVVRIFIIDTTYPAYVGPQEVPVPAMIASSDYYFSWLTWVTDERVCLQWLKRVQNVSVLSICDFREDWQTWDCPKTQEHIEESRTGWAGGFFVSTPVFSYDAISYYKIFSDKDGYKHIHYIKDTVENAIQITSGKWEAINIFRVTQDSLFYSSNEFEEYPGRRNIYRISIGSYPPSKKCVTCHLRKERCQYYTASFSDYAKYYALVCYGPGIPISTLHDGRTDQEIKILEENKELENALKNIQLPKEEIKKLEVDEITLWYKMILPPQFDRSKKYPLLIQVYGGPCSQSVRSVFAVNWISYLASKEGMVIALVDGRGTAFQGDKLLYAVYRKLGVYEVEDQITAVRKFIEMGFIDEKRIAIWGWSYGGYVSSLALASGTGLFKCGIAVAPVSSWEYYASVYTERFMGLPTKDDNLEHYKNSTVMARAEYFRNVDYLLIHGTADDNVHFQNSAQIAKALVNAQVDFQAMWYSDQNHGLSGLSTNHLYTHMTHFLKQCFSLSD

[2] = target: T2, human CD40 on cells (human, UniProt P25942 21-277); assay: binding to human CD40-positive macrophages
T2 construct: Endogenous CD40 on human primary cells and Raji cells; also called CD40-positive macrophage; CD40-positive B cell
T2 sequence (P25942 21-277): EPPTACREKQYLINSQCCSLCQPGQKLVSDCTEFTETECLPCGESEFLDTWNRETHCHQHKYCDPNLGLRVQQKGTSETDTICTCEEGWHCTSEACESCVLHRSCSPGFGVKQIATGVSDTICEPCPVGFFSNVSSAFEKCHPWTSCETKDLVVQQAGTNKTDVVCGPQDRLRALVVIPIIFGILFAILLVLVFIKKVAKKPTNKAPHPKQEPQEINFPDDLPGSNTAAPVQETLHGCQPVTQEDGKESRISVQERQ

[3] = target: FcγRIIIB (CD16b) (UniProt O75015 17-200, limits assumed); assay: SPR, Biacore S200, antibody captured on Protein A chip, FcγR as analyte
Chain of FcγRIIIB (CD16b) (O75015 17-200 limits assumed): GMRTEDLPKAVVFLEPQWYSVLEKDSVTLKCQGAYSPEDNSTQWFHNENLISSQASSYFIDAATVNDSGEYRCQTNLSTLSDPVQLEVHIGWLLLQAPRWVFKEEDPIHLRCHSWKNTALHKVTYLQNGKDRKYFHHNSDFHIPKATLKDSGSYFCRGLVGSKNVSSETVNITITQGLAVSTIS
Method: Binding of CD40.9H3×FAP.LP62 and the analog of RO7300490 to various Fc gamma receptors (FcγR1 (CD64), FcγRIIIA (CD16a), FcγRIIIB (CD16b), FcγRIIA (CD32a), FcγRIIB (CD32b)) was determined in an analyte/capture assay in vitro. Briefly, an SPR assay was performed using a Biacore S200 with a Biacore Series S Protein A chip (Cytiva). All antibodies were prepared at 4.0 μg/ml in 1×HBS-EP+ running buffer (Cytiva) and captured onto flow cells 2, 3, and 4 through a 60 second contact time at 10 μl/min. An analyte series of the FcγRs (BMS In-House Produced) were prepared at 10,000 nM in 1×HBS-EP+ with eight, three-fold dilutions. Kinetic measurements were conducted with a 120 second association followed by a 120 second dissociation at 30 μl/min. Surface regeneration was preformed by 60 second contact time of 50 mM Glycine pH 1.5 solution (Cytiva) at 30 μl/min. Data was processed in Biacore Insight Evaluation Version 5 (Cytiva). Sensorgrams were double referenced and globally fit to a 1:1 Langmuir model were applicable. Where 1:1 model was not sufficient to describe the interaction (fast-on and fast-off rates), steady state equilibrium fitting was used to determine the equilibrium constant.

[4] = target: T3, cynomolgus (cyno) FAP protein (cynomolgus monkey); assay: SPR
T3 chain: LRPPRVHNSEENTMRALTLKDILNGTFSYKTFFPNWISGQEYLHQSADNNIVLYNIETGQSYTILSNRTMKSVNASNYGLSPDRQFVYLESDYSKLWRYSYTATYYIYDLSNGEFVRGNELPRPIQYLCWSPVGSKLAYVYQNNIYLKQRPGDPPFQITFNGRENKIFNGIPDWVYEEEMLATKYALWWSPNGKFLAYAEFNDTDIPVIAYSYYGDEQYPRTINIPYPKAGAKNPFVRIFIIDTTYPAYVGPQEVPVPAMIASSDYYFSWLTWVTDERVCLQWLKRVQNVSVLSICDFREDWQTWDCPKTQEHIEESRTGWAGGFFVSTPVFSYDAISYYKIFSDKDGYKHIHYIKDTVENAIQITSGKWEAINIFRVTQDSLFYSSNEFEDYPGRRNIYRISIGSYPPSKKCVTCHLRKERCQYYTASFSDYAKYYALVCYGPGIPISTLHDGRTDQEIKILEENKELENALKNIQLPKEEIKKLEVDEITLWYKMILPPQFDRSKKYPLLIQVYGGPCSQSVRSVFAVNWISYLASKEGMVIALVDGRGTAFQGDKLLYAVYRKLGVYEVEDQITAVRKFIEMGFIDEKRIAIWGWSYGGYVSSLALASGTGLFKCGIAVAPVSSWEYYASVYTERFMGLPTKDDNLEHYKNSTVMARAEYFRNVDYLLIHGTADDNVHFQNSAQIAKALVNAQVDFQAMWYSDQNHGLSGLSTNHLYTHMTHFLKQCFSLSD
Method: CD40.9H3×FAP.LP62 and an analog of RO7300490 (see SEQ ID NOs: 39-42) binding to human and cynomolgus (cyno) CD40 and FAP was evaluated by surface plasmon resonance (SPR) using human and cyno CD40 and FAP proteins. […] The rates of association and dissociation of CD40.9H3×FAP.LP62 and the analog of RO7300490 to human CD40 and FAP are summarized in Table 2.

- EC50 [1]: 3.72 nM
- EC50 [2]: 11.9 nM
- binding result [3]: no binding
- Kd [4]: 5.6 nM
- koff [4]: 0.00276 s⁻¹
- kon [4]: 500000 M⁻¹ s⁻¹
B1: CD40.9H3×FAP.LP62 bispecific antibody (bispecific antibody, human IgG1, kappa, L234A L235A)
heavy 1: EVQLVESGGGLVQPGGSLRLSCAASGFTFIGYSMNWVRQAPGKGLEWVSYISSYESTIYYADSVKGRFTISRDNAKNSLYLQMNSLRAEDTAVYYCARSRITLVRGVPRYFDLWGRGTLVTVSSASTKGPSVFPLAPSSKSTSGGTAALGCLVKDYFPEPVTVSWNSGALTSGVHTFPAVLQSSGLYSLSSVVTVPSSSLGTQTYICNVNHKPSNTKVDKKVEPKSCDKTHTCPPCPAPEAAGGPSVFLFPPKPKDTLMISRTPEVTCVVVSVSHEDPEVKFNWYVDGVEVHNAKTKPREEQYNSTYRVVSVLTVLHQDWLNGKEYKCKVSNKALPAPIEKTISKAKGQPREPQVYVLPPSREEMTKNQVSLLCLVKGFYPSDIAVEWESNGQPENNYLTWPPVLDSDGSFFLYSKLTVDKSRWQQGNVFSCSVMHEALHNHYTQKSLSLSPG
heavy 2: EVQLVESGGGLVQPGGSLRLSCAASGFTFIGYSMNWVRQAPGKGLEWVSYISSYESTIYYADSVKGRFTISRDNAKNSLYLQMNSLRAEDTAVYYCARSRITLVRGVPRYFDLWGRGTLVTVSSASTKGPSVFPLAPSSKSTSGGTAALGCLVKDYFPEPVTVSWNSGALTSGVHTFPAVLQSSGLYSLSSVVTVPSSSLGTQTYICNVNHKPSNTKVDKKVEPKSCDKTHTCPPCPAPEAAGGPSVFLFPPKPKDTLMISRTPEVTCVVVSVSHEDPEVKFNWYVDGVEVHNAKTKPREEQYNSTYRVVSVLTVLHQDWLNGKEYKCKVSNKALPAPIEKTISKAKGQPREPQVYVYPPSREEMTKNQVSLTCLVKGFYPSDIAVEWESNGQPENNYKTTPPVLDSDGSFALVSKLTVDKSRWQQGNVFSCSVMHEALHNHYTQKSLSLSPGGGSGGGGSGGGGSGGGGSEVQLLESGGGLVQPGGSLRLSCAASGFTFSSRGMSWVRQAPGKCLEWVSFISSSGTYVYYADSVKGRFTISRDNSKNTLYLQMNSLRAEDTAVYYCARDLPRTGVYFGMDVWGQGTTVTVSSGGGGSGGGGSGGGGSGGGGSDIQMTQSPSSLSASVGDRVTITCRASQSIFNYLNWYQQKPGKAPKLLIYGASTLQSGVPSRFSGSGSGTDFTLTISSLQPEDFATYYCQESYSTPYTFGCGTKVEIK
light: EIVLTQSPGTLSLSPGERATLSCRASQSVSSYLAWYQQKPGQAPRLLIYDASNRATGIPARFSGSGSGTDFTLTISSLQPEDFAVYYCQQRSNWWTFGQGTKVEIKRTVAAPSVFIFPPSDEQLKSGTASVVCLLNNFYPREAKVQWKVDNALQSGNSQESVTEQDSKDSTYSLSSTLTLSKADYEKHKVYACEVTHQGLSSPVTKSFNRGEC
notes: 2+1 format: two anti-CD40 9H3 Fabs on an IgG1 Fc with L234A, L235A, D265S and heterodimerization mutations; Ratio 1:1:2
